In patent US20070036810A1, “Cyclic amp response element activator proteins and uses related thereto” (priority 2003, published 2007):
Where two headings read alike, the source gives them in different places.

Tests used:
Interleukin-8 promoter = assay: IL-8 promoter luciferase reporter co-transfection assay with the CREAP gene family; type: cell-based, human; details: cotransfection, relative to empty pCMV-SPORT6 vector
Text: (§1) The entire amino acid sequence for CREAP1 was used in a BLASTP search of a public NCBI database. Initially two public domain cDNAs (XM—117201 and FLJ00364) were identified that have significant homology to the CREAP1 coding region. The nucleotide sequence of XM—117201 was used in a BLASTN search (Altschul S. F. et al., Nucleic Acids Res. 25:3389-3402 (1997)) of a proprietary cDNA library EST database and 4 clones were identified that represent XM—117201 public sequence. All 4 clones were functionally tested upon co-transfection with the CRE-Luc and IL-8p-Luc reporters initially found to be induced by CREAP using methods similar to those disclosed above. Briefly, trypsinized HeLa cells are resuspended in complete growth media at 6×10^4 cells/ml and distributed into white 96-well plates (Costar) in the volume of 100 μl per well. Cells are left overnight in a tissue culture incubator at 37° C. and 5% CO2. pGL3B-IL-8p-Luc reporter plasmid or CRE-Luc reporter (BD Biosciences) as well as tested cDNAs are resuspended in OptiMEM I low serum media (GIBCO BRL) at 25 ng/ml. The reporter plasmids and cDNAs are then distributed into 96-well clean PCR plates (ABGene) at 4 μl/well and 3 μl/well respectively. […]
The activity of firefly and Renilla luciferase is measured using the DualGlo Luciferase Assay System (Promega) following the protocol supplied by the manufacturer. Briefly, 115 μl of freshly reconstituted luciferase reagent is added to each well of the 96-well tissue culture plates with a Multidrop 384 and, after 15 minutes incubation, luminescence is read on a LUMINOSKAN Ascent Luminometer (Thermo Labsystems) with a 400 msec integration time. Subsequently, 115 μl of Stop-and-Glo reagent is added to each well of the 96-well tissue culture and, after 15 minutes incubation, luminescence is read on a LUMINOSKAN Ascent Luminometer with a 200 msec integration time. The activity of each tested cDNA is measured as a ratio of the corresponding firefly and Renilla luciferase activities. […]

[1] = test system: cAMP responsive genes in HeLa cells; details: vs pCMV-Sport6 vector
Text: HeLa cells are transfected with CREAP1 as described herein or expression constructs containing relA, (Ruben S M et al., Science 1991 Mar. 22;251(5000):1490-3), MAP3K11 (Hartkamp, J. et al., (1999). Cancer Res. 59, 2195-2202) or ANKRD3 (Muto, A., et al., (2002) J. Biol. Chem. 277, 31871-31876.) using Targefect F1 transfection reagent (Targeting Systems, Santee, Calif.) according to the protocol supplied with the product. Briefly, HeLa cells are used for the transfection at 70-80% of confluency in T75 tissue culture flasks (Falcon). Transfection mixes are prepared as follows: to 50 ml conical tube (Falcon) with 8 ml of Opti-MEM I 20 μg of selected plasmid DNA is added and mixed by flicking the tube. Two transfections are set up with pCMV-Sport6 empty vector. Targefect F-1 stock solution is vortexed at full speed for 20 seconds and 40 μl are added to each tube, mixed again by flicking the tube and incubated at room temperature for 30 minutes to allow formation of transfection complexes. HeLa cells are washed twice with 20 ml of Opti-MEM I medium and […] of each transfection complex are added per 1 T75 flask. After 4 hrs of incubation at 37° C. 8 ml of growth media with serum is added to each flask. The media is replaced the next day. 56 hours post-transfection the media is replaced again and to one of the flasks transfected with pCMV-Sport6 plasmid TNFα (R&D Systems) is added at 50 ng/ml and the incubation is continued at 37° C. for the next 16 hours. 72 hours post-transfection cells are collected in 10 ml of TRIzol reagent (Gibco BRL) and frozen at −80° C. Total RNA is isolated according to the protocol supplied with the TRIzol reagent. Synthesis labeling of double-stranded cDNA probes, Affymetrix Gene-Chip hybridization and data analysis are done according to conventional methods (see also Eberwine, J., et al., J. Neurosci. 21, 8310-8314 and Hakak, Y., et al., (2001) Proc. Natl. Acad. Sci. U.S.A. 98, 4746-4751).
To determine if CREAP1 regulates expression of authentic CREB targets, cellular gene expression was measured using DNA microarrays after overexpression of CREAP1. Briefly, HeLa cells were transiently transfected with pCMV-Sport6, CREAP1 using Targefect F1 reagent (Targeting Systems). One half of pCMV-Sport6 transfected cells were left untreated and was used as a negative control. Total RNA isolation, labeled probe preparation and DNA microchip hybridization protocol were performed as described above.

[2] = test system: minimal promoter linked to multiple copies of CRE; assay: CRE-Luc reporter co-transfection assay with the CREAP gene family; type: cell-based; details: cotransfection, relative to empty pCMV-SPORT6 vector
Text: as §1, with “respectively. Mixture containing Fugene 6 reagent (Roche Applied Bioscience) at 1.5 μl per transfection and pRL-SV40 (Promega) plasmid 20 ng per transfection is added in the volume of 10 μl per well of the 96-well PCR plate containing prediluted cDNAs.” for “respectively.”
The activity of firefly and Renilla luciferase is measured using the DualGlo Luciferase Assay System (Promega) following the protocol supplied by the manufacturer. Briefly, 115 μl of freshly reconstituted luciferase reagent is added to each well of the 96-well tissue culture plates with a Multidrop 384 and, after 15 minutes incubation, luminescence is read on a LUMINOSKAN Ascent Luminometer (Thermo Labsystems) with a 400 msec integration time. Subsequently, 115 μl of Stop-and-Glo reagent is added to each well of the 96-well tissue culture and, after 15 minutes incubation, luminescence is read on a LUMINOSKAN Ascent Luminometer with a 200 msec integration time. The activity of each tested cDNA is measured as a ratio of the corresponding firefly and Renilla luciferase activities.
To investigate this, the ability of CREAP2 and CREAP3 to activate gene expression driven by the IL-8 promoter and a CRE-dependent promoter was tested in co-transfection assays as disclosed above. Briefly, the levels of expression of a luciferase reporter driven by either the IL-8 promoter or a minimal promoter linked to 4 copies of CRE were determined after cotransfection with either an empty pCMV-SPORT6 expression vector or with the same vector carrying a cDNA for CREAP1, CREAP2 or CREAP3. […]

B1: CREAP1: human CRE activating protein 1, 650 amino acids, SEQ ID NO 2; expressed from pCMVSPORT-CREAP1 (protein)
chain: MATSNNPRKFSEKIALHNQKQAEETAAFEEVMKDLSLTRAARLQLQKSQYLQLGPSRGQYYGGSLPNVNQIGSGTMDLPFQPSGFLGEALAAAPVSLTPFQSSGLDTSRTTRHHGLVDRVYRERGRLGSPHRRPLSVDKHGRQADSCPYGTMYLSPPADTSWRRTNSDSALHQSTMTPTQPESFSSGSQDVHQKRVLLLTVPGMEETTSEADKNLSKQAWDTKKTGSRPKSCEVPGINIFPSADQENTTALIPATHNTGGSLPDLTNIHFPSPLPTPLDPEEPTFPALSSSSSTGNLAANLTHLGIGGAGQGMSTPGSSPQHRPAGVSPLSLSTEARRQQASPTLSPLSPITQAVAMDALSLEQQLPYAFFTQAGSQQPPPQPQPPPPPPPASQQPPPPPPPQAPVRLPPGGPLLPSASLTRGPQPPPLAVTVPSSLPQSPPENPGQPSMGIDIASAPALQQYRTSAGSPANQSPTSPVSNQGFSPGSSPQHTSTLGSVFGDAYYEQQMAARQANALSHQLEQFNMMENAISSSSLYSPGSTLNYSQAAMMGLTGSHGSLPDSQQLGYASHSGIPNIILTVTGESPPSLSKELTSSLAGVGDVSFDSDSQFPLDELKIDPLTLDGLHMLNDPDMVLADPATEDTFRMDRL
modifications: human
- IL-8: level of expression of luciferase relative to empty vector (Interleukin-8 promoter): 175.8571
- Fold Activation ([1]; CAPL protein mRNA (38088_r_at)): 19
- Fold Activation ([1]; DKFZp566K192 mRNA (32242_at)): 32
- Fold Activation ([1]; Exodus-1 mRNA (40385_at)): 15
- Fold Activation ([1]; IL-8 mRNA (1369_s_at)): 2.5
- Fold Activation ([1]; KIAA0467 mRNA (41458_at)): 12
- Fold Activation ([1]; PEPCK mRNA (33702_f_at)): 32
- Fold Activation ([1]; TSHa mRNA (39352_at)): 57
- Fold Activation ([1]; amphiregulin mRNA (34898_at)): 19
- CRE: level of expression of luciferase relative to empty vector [2]: 28.6
